Measurements as given in the nanobody polyreactivity screen of Harvey et al. (2022).

experiment: yeast display, Sf9 membrane polyspecificity reagent, FACS + sequencing; frameworks hold sequencing errors
In short: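 In a synthetic yeast display library (Saccharomyces cerevisiae BJ5465), nanobody expression was induced with galactose for 36–48 hours. FACS gates were set low and high (top ~1%) using anti-HA fluorescence for expression and streptavidin fluorescence for binding of the Sf9 membrane reagent. Each polyreactivity label is drawn from the gate of origin.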

| Sequence | polyreactivity (PSR sort gate) |
| --- | --- |
| QVQLVESGGGLVQAGGRLRLSCAASVRILGKYAMGWYRQAPGKERELVAAIRLRGGSTYYADSVKGRFTISRDNAKNTVYLQMNSLKPEDTAVYYCAARYWDRSQAYYYWGQGTQVTVSS | high polyreactivity |
| QVQLVESGGGLVQAGGSLRLSCAAYGIIFWINSMGRYRPAPGKEREVVAAITSGGTTYYADSVKGRFTISRDNGKNTVYLQMNILKPEDTAVYYCAARVRGARDYYWGQGTQVTVSS | high polyreactivity |
| QVQLVESGGGLVQAGGSLRITCAASGSTFYRNAMGWYRQAPGKERELVAALSRGGSTYYADSVKGRFTISRDNAKNTVYLQMNSLKPEDSAVYYCAARYYSYQYGRHTRYQSVYWGQGTQVTVSS | high polyreactivity |
| QVQLVESGGGLVQAGGSLSLSCAASGFTFRYNAMGWYRQAPGKERELVARISSTGGGTSYADSVKGRFTISRDNAKNTVYLQMNSLKPEDTAVYYCAAPVRRYPYPGRFYYWGQGTQVTVSS | low polyreactivity |
| QVQLVESGGGLVQAGGSLRLSCAASGRTFYANTMGWYRQAPGKERELVAAITVRGGTTFYADSVKGRFTISRDNAKNTVYLQMNSLKPEDTAVYYCAAYGYRYSHEYYYWGQGTQVTVSS | high polyreactivity |
| QVQLVESGVRLLQAGGSLRLSCAASGITSDDNTMGWYRQAPGKERELVARIRRTGGGTYYADSVKGRFTISRDNAKNTVYLQINSLKPEDSAVYYCAAVPSWGYRFNRVPYLWVDYWGQGTQVTVSS | low polyreactivity |
| QVQLVESGGGLVQAGGSLRLSCAASGSIFPGYAMGWYRQAPGKERELVAAITFSGGSTYYADSVKGRFTISRDNAKNTVYLLMISLKPEDTAVYYCAAPGWYGGYPSFYYWGQGTQVTVSS | low polyreactivity |
| QVQLVESVGRLVQAGGSLRLSCAASGFIFIFYTMGWYRHAPGKERELVASITSSGGSTYYADSVKGRFTISRDNAKNTVYLQMNSLNPEDTAVYYCAAKKYRSPRGYWGLGTQVTVSS | high polyreactivity |
| QVQLVESGGGLVQAGGSLRLSCAAARIFVYNAMGWYRQAPGKERELVATITSSGGITYYADSVKGRFTISRDNAKNTVYLQMKSLKPEDTAVYYCNKVRRYYYRTHNVYWGQGTQVTVSS | high polyreactivity |
| QVQLVESGGGLVQAGGSLRLSCAASGFTIGDYAMGWYRQAPGKERELVAAITYSGGSTYYADSVKGRFTISRDNAKNTVYLQMNSLKPEDTAVYYCNADYASQSGYDYWGQGTQVTVSS | low polyreactivity |
| QVQLVESGRGLVQAGGSLRLSCAASGSIFIVYAMGWYRQAPGKERELVAAISWSGGSTYYADSVKGRFTISRDNAKNTVYLQMNSLKPEDSAVYFCAAKYTLPFRDVKYYSWGQGTQVTVSS | high polyreactivity |
| QVQLVESGGGLVQAGGSLSLSCAASGFTFYYYAMGLYRQAPGKERELVAAISWSGGSTYYADSVKGRFTISRDIAKNSVYLQMNCLKPEYTAVYYCNAVGYTAYDYWGQGTQVTVSS | high polyreactivity |
| QVQLVESGGGLVQAGGSLRLICAASGNTFGYNAMVWYRQAPGKERELVASITLSGGSTYYADSVKGRFTISRDTAKNTVYLQMFCLKPEDTAVYYCNADTFQWWDIADVYVIVKYGYWGQGTQVTVSS | low polyreactivity |
| QVQLVESGRGLVQAGGSLRLSCAASGRIFFYYAMGWYREAPGKERELVATISYSGGGTYYADSVKGRFTISRDNAKNTVYLQMNSLKPEDTAVYYCNARWGTPYYIQDFDYWGQGTQVTVSS | low polyreactivity |
| QVQLVESGGGLVQAGGSLRLSCAASGSTFVSNAMGWDRQAPGKERELVAAISSSGGRTSYADSEKGRFTISRDNAKNTVYLQMTSPKPEDTAVYYCAARFKSVDYVQYYYWGQGTQVTVSS | low polyreactivity |
| QVQLVESGGGLVQAGGSLRLSCAASGIYSYVMGWYRQAPGKERELVAAISGTGGRTYYADSVKGRFTISRDNAKNTVYLQMNSLKPEDTAVYYCAARGIYQPKTFDYWGQGTQVTVSS | high polyreactivity |
| QVHLVESGGGLVQAGGSLRLSCAASGSILAGYAMGWYRQAPGKEWELVAAISSGGRTYYADSVKGRFTISRDNAKNTVYLQMNSLKPEDTAVYYSAAGKYDGSRRMYYWGQGTQVTVSS | high polyreactivity |
| QVQLVESGGGLVQAGGSLRLSCAASGSTFRRYAMGWYRQAPGKERELVAAITTRGGSTYYADSVKGRFTISRDNAKNSVYLQMNSLKPEDTAVYYCARDYSTYLRTAGDYWGQGTQVTVSS | low polyreactivity |
| QVQLVESGGGLVQAGGSLRLSCAASGYIFGSYTMGWYRQAPAKERELVAGISRRGGGTYYADSVKGRFTISRDNAKNTVYLQMNSLKPEDTAVYYCAAEVITIGLYRYGYWGQGTQVTVSS | high polyreactivity |
| QVQLVESGGGLVQAGGSLRLSCAASGFTFTDYAMGWYRQAPGKERELVAAITSGDSTYYADSVKGRFTISRDNAKNTVYLQMNSLKPEDTAVYYCNKLRRSPNSQYYYWGQGTQVTVSS | high polyreactivity |
| QVQLVESGGGLVQAGGSLRLSCAASGSIFRDNTMGWYRQAPGKERELVAAISYSGGGTYYADSVKGRVTISRDNAKNTVYLQMNSLKPEDTAVYYCAKRTYPWYYREIPYGYWGQGTQVTVSS | high polyreactivity |
| QVQLVESGGGLVQAGGSLRLSCAASGNTFAYYAMGWYRQAPGKERELVAAISGSGGRTYYADSVKGRFTISRDNAKNTVYFQMNILKPEDTAVYYCNARPAGGLGYGYWGQGTQVTVSS | high polyreactivity |

| Sequence | polyreactivity (PSR sort gate) |
| --- | --- |
| QVQLVESGGGLVQAGGSLRLSCAASGQIFVRNAMGWYRQAPGKERELVARISSGGSTNYADSVKGRFTISRDNAKNTVYLQMISLKPEDTAVYYCAARVYKGWPTHYDYWGQGTQVTVSS | high polyreactivity |
| QVQLVESGGCLVQAGGSLRISCAASGLTFKGYTMGWYRQAPGKEREFVAAITGGVGSTYYADSVKGRFTISRDNAKNTVYVHMKSLQPEDTAVYYCNSVSYGYTDLYIFYTGYYYWGQGTQVTVSS | low polyreactivity |
| QVQLVESGGGLVQAGGSLRLSCAASGSTVINYAMGWYRHAPGKERELVATLTSDGRTYYADSVKGRCTISRDNAKNTVYLQMISLKPEDTAVYSCAKSYGGVTEYDYWGQGTQVTVSS | low polyreactivity |
| QVQLVESGGGLVQAGGSIRLTCAASGGTFGRNAMGWYRQAPGKERELVATITRRGGSTYYADSVKGRFTISRDNAKTSVYLQMNSLKAEDTAVYYCAARDVYRGGLFDYWGQGTQVTVSS | high polyreactivity |
| QVQLVESGGGLVQAGGSLSLSCAASGRIFVSYAMGWYRQAPGKERELVAAISYSGGSTYYADSVKGRFTISRDNAKNTVYLQMNSLKPEDTAVYYCAKDGGVYAPAGDDDYWGQGTQVTVSS | low polyreactivity |
| QVQLVESGGGLVQAGGSLRLSCAASGSTFAYYTMGWYRQAPGKERELVAAISSRGGSTYYADSVKGRFTISRDNAKNTVYLQMNSLKPEDTAVYYCAKSPRVAHYTSAYDYWGQGTQVTVSS | high polyreactivity |
| QVQLVESGGGLVNAGGSLRLICDASGLIFYKNAMGWYRQAPGKERELVAAISWRDGRTYYADSVKGRFTISRDNAKNTVYLQMISLIPEDSAVYYCNAVRGITSYDYYYWGQGTQVTVSS | high polyreactivity |
| QVQLVESGGGLVQAGGSLRLSFAASGITFASNTMGWYRQAPGKERELVAAITRGDNTYYADSVKGRFTISRDNAKNTVYLQMKSLKPEDTAVYYCAKDPHGVEPVPDGYDYWGQGTQVTVSS | low polyreactivity |
| QVQLVESGGGLVQAGGSLRLSCAASGSIFSINAMGWYRQAPGKERELVAAISWSGGSTYYADSVKGRFTISRDNAKNTVYLQMNSLKPEDTAVYYCNAEEDEYGELDYWGLGTQVTVSS | low polyreactivity |
| QVQHVESGGGLVQAGGSLRLSCAASGLNLYSNAMGCYRQAPGNERELVAAISWIGASTYYADSVKGRFTISRDNAKNTVYLQMNSLKQEDTAVYYCATARYRGYPTYSYARDYCGQGTQVTVSS | high polyreactivity |
| QVQLVESGAGLVQAGGSLRLSSAASGLTFQTYAMGCYRQAPGKEREYVATISNGSSTYYADSVKGRFTISRDNAKNTVYFQMNILKPEDTAVYYCAKDYYYSRNQLYGHDYWGQGPQVTVSS | low polyreactivity |
| QVQLVESGGGLVQAGGSLRLSCAASGSTFIQNAMGWYTQAPGKERELVAAITSGGGTNYADSVKGRFTISRDNAKNTVYLQMNSLKPEDTAVYYCAAEPFNYVEFWFGWEYQYDYWGQGTQVTVSS | low polyreactivity |
| QVQLVESGGGLVQAGGSLRLSCAPSGSIFYINAMAWYRQAPGKERELVAAITSDGSTYYADSVKGRFTISRDNAKNTVYLQMNSLKPVDTAVYYFAADMTSDQYLYYWYWFYSWGQGTQVTVSS | low polyreactivity |
| QVQLVESGGGLVQAGGSLRLSCAASGRTFSYYALGWYRQAPGKERELVATISYSTGNTNYADSVKGRFTISRDNAKNTVYLQMNSLKPEDTAVYYCAADFSPFVGETYWKYDYWGQGTQVTVSS | low polyreactivity |
| QVQLVESGGGLVQAGGSLRLSCAASGRIFSTNAMGWYIQAPGKERELVAAISKNGGRTYYADSVKWRFTISRDNAKNTVYLQMNSLKPEDTAVYYCAAPVKPVTGYYPYDYWGQGTQVTVSS | high polyreactivity |
| QVQLVESGGGLVQAGGSLRLSCAASGSILASNAMGWYRQAPGKDRELVAAITTSGGSTYYADSVKGRFTISRHNAKNTVYLQMNSLKPEDTAVYYCNAEYWLGRWLRYGYWGQGTQVTVSS | high polyreactivity |
| QVQLVESGGGLVQAGGSLRLSCAASGSTFGYNAMGWYRQAPGKERELVAAITRRGGITYYADSVKGRFTISRDNAKNTVYLQMNSLKPEDTAVYYCAKRLGYPGNSRNYYYWGQGTQVTVSS | high polyreactivity |
| QVQLVESGGGLVQAGGSLRLSCAASGSTFVWYAMGWYRQAPGKEREFVAAITNSGGSTYYADSVKGRFTISRDNAKNTVYLQMNSLKPEDTAVDYCAKDRYYYRGAYHEYNYWGQGTQVTVSS | low polyreactivity |
| QVQLVESGGGLVQAGGMLRLSCAASGRIFGVNAMGWYRQAPGKERELVAVISSGGSTYYADSVKGRFTISRDNAKNTVYVQMNSLKPEDTAVYYCNAVVGRWFPYNLSDYWGQGTQVTVSS | low polyreactivity |
| QVQLVESVGGLVQAGGSLRLSCAASGSIFQPYAMGWYRHAPGKEREFVAAISRSGGITYYADSVKGRFTISRDNAKNTVYLQMNSLKPEDTAVYYCATGRQVVRSYSEGDYCGQGTQVTVSS | low polyreactivity |
| QVQLVESGGGLVQAGGSLRLSCAASGFTFYSYALGWYIQAPGKERELVAAISRGGSTTYADSVKGRFTISRDNAKNTVYLQMNSLKPEDTAVYYCAARYRYRYTPYRYDYWGQGTQVTVSS | high polyreactivity |
